Laboratory results from paper PMC8298264, “Function of cofactor Akirin2 in the regulation of gene expression in model human neutrophil-like HL60 cells” (Bioscience Reports, 2021).

B1: sp¦Q12931¦TRAP1_HUMAN (protein, UniProt Q12931 60-704, looked up)
Heat shock protein 75 kDa, …: STQTAEDKEEPLHSIISSTESVQGSTSKHEFQAETKKLLDIVARSLYSEKEVFIRELISNASDALEKLRHKLVSDGQALPEMEIHLQTNAEKGTITIQDTGIGMTQEELVSNLGTIARSGSKAFLDALQNQAEASSKIIGQFGVGFYSAFMVADRVEVYSRSAAPGSLGYQWLSDGSGVFEIAEASGVRTGTKIIIHLKSDCKEFSSEARVRDVVTKYSNFVSFPLYLNGRRMNTLQAIWMMDPKDVREWQHEEFYRYVAQAHDKPRYTLHYKTDAPLNIRSIFYVPDMKPSMFDVSRELGSSVALYSRKVLIQTKATDILPKWLRFIRGVVDSEDIPLNLSRELLQESALIRKLRDVLQQRLIKFFIDQSKKDAEKYAKFFEDYGLFMREGIVTATEQEVKEDIAKLLRYESSALPSGQLTSLSEYASRMRAGTRNIYYLCAPNRHLAEHSPYYEAMKKKDTEVLFCFEQFDELTLLHLREFDKKKLISVETDIVVDHYKEEKFEDRSPAAECLSEKETEELMAWMRNVLGSRVTNVKVTLRLDTHPAMVTVLEMGAARHFLRMQQLAKTQEERAQLLQPTLEINPRHALIKKLNQLRASEPGLAQLLVDQIYENAMIAAGLVDDPRAMVGRLNELLVKALERH
B2: sp¦P00505¦AATM_HUMAN (protein, UniProt P00505 30-430, looked up)
Aspartate aminotransferase, …: SSWWTHVEMGPPDPILGVTEAFKRDTNSKKMNLGVGAYRDDNGKPYVLPSVRKAEAQIAAKNLDKEYLPIGGLAEFCKASAELALGENSEVLKSGRFVTVQTISGTGALRIGASFLQRFFKFSRDVFLPKPTWGNHTPIFRDAGMQLQGYRYYDPKTCGFDFTGAVEDISKIPEQSVLLLHACAHNPTGVDPRPEQWKEIATVVKKRNLFAFFDMAYQGFASGDGDKDAWAVRHFIEQGINVCLCQSYAKNMGLYGERVGAFTMVCKDADEAKRVESQLKILIRPMYSNPPLNGARIAAAILNTPDLRKQWLQEVKVMADRIIGMRTQLVSNLKKEGSTHNWQHITDQIGMFCFTGLKPEQVERLIKEFSIYMTKDGRISVAGVTSSNVGYLAHAIHQVTK
B3: sp¦P22087¦FBRL_HUMAN (protein, UniProt P22087 1-321, looked up)
rRNA 2'-O-methyltransferase …: MKPGFSPRGGGFGGRGGFGDRGGRGGRGGFGGGRGRGGGFRGRGRGGGGGGGGGGGGGRGGGGFHSGGNRGRGRGGKRGNQSGKNVMVEPHRHEGVFICRGKEDALVTKNLVPGESVYGEKRVSISEGDDKIEYRAWNPFRSKLAAAILGGVDQIHIKPGAKVLYLGAASGTTVSHVSDIVGPDGLVYAVEFSHRSGRDLINLAKKRTNIIPVIEDARHPHKYRMLIAMVDVIFADVAQPDQTRIVALNAHTFLRNGGHFVISIKANCIDSTASAEAVFASEVKKMQQENMKPQEQLTLEPYERDHAVVVGVYRPPPKVKN
B4: sp¦Q9H2U2¦IPYR2_HUMAN (protein, UniProt Q9H2U2 33-334, looked up)
Inorganic pyrophosphatase 2, …: ALYHTEERGQPCSQNYRLFFKNVTGHYISPFHDIPLKVNSKEENGIPMKKARNDEYENLFNMIVEIPRWTNAKMEIATKEPMNPIKQYVKDGKLRYVANIFPYKGYIWNYGTLPQTWEDPHEKDKSTNCFGDNDPIDVCEIGSKILSCGEVIHVKILGILALIDEGETDWKLIAINANDPEASKFHDIDDVKKFKPGYLEATLNWFRLYKVPDGKPENQFAFNGEFKNKAFALEVIKSTHQCWKALLMKKCNGGAINCTNVQISDSPFRCTQEEARSLVESVSSSPNKESNEEEQVWHFLGK
B5: sp¦P30044¦PRDX5_HUMAN (protein, UniProt P30044 53-214, looked up)
Peroxiredoxin-5, mitochondrial: MAPIKVGDAIPAVEVFEGEPGNKVNLAELFKGKKGVLFGVPGAFTPGCSKTHLPGFVEQAEALKAKGVQVVACLSVNDAFVTGEWGRAHKAEGKVRLLADPTGAFGKETDLLLDDSLVSIFGNRRLKRFSMVVQDGIVKALNVEPDGTGLTCSLAPNIISQL
B6: sp¦Q6NVY1¦HIBCH_HUMAN (protein, UniProt Q6NVY1 33-386, looked up)
3-hydroxyisobutyryl-CoA …: DAAEEVLLEKKGCTGVITLNRPKFLNALTLNMIRQIYPQLKKWEQDPETFLIIIKGAGGKAFCAGGDIRVISEAEKAKQKIAPVFFREEYMLNNAVGSCQKPYVALIHGITMGGGVGLSVHGQFRVATEKCLFAMPETAIGLFPDVGGGYFLPRLQGKLGYFLALTGFRLKGRDVYRAGIATHFVDSEKLAMLEEDLLALKSPSKENIASVLENYHTESKIDRDKSFILEEHMDKINSCFSANTVEEIIENLQQDGSSFALEQLKVINKMSPTSLKITLRQLMEGSSKTLQEVLTMEYRLSQACMRGHDFHEGVRAVLIDKDQSPKWKPADLKEVTEEDLNNHFKSLGSSDLKF
B7: sp¦Q9NVP1¦DDX18_HUMAN (protein, UniProt Q9NVP1 1-670, looked up)
ATP-dependent RNA helicase …: MSHLPMKLLRKKIEKRNLKLRQRNLKFQGASNLTLSETQNGDVSEETMGSRKVKKSKQKPMNVGLSETQNGGMSQEAVGNIKVTKSPQKSTVLTNGEAAMQSSNSESKKKKKKKRKMVNDAEPDTKKAKTENKGKSEEESAETTKETENNVEKPDNDEDESEVPSLPLGLTGAFEDTSFASLCNLVNENTLKAIKEMGFTNMTEIQHKSIRPLLEGRDLLAAAKTGSGKTLAFLIPAVELIVKLRFMPRNGTGVLILSPTRELAMQTFGVLKELMTHHVHTYGLIMGGSNRSAEAQKLGNGINIIVATPGRLLDHMQNTPGFMYKNLQCLVIDEADRILDVGFEEELKQIIKLLPTRRQTMLFSATQTRKVEDLARISLKKEPLYVGVDDDKANATVDGLEQGYVVCPSEKRFLLLFTFLKKNRKKKLMVFFSSCMSVKYHYELLNYIDLPVLAIHGKQKQNKRTTTFFQFCNADSGTLLCTDVAARGLDIPEVDWIVQYDPPDDPKEYIHRVGRTARGLNGRGHALLILRPEELGFLRYLKQSKVPLSEFDFSWSKISDIQSQLEKLIEKNYFLHKSAQEAYKSYIRAYDSHSLKQIFNVNNLNLPQVALSFGFKVPPFVDLNVNSNEGKQKKRGGGGGFGYQKTKKVEKSKIFKHISKKSSDSRQFSH
B8: sp¦P13804¦ETFA_HUMAN (protein, UniProt P13804 20-333, looked up)
Electron transfer …: QSTLVIAEHANDSLAPITLNTITAATRLGGEVSCLVAGTKCDKVAQDLCKVAGIAKVLVAQHDVYKGLLPEELTPLILATQKQFNYTHICAGASAFGKNLLPRVAAKLEVAPISDIIAIKSPDTFVRTIYAGNALCTVKCDEKVKVFSVRGTSFDAAATSGGSASSEKASSTSPVEISEWLDQKLTKSDRPELTGAKVVVSGGRGLKSGENFKLLYDLADQLHAAVGASRAAVDAGFVPNDMQVGQTGKIVAPELYIAVGISGAIQHLAGMKDSKTIVAINKDPEAPIFQVADYGIVADLFKVVPEMTEILKKK
B9: sp¦P04844¦RPN2_HUMAN (protein, UniProt P04844 23-631, looked up)
Dolichyl-diphosphooligosacchar …: LTPTHYLTKHDVERLKASLDRPFTNLESAFYSIVGLSSLGAQVPDAKKACTYIRSNLDPSNVDSLFYAAQASQALSGCEISISNETKDLLLAAVSEDSSVTQIYHAVAALSGFGLPLASQEALSALTARLSKEETVLATVQALQTASHLSQQADLRSIVEEIEDLVARLDELGGVYLQFEEGLETTALFVAATYKLMDHVGTEPSIKEDQVIQLMNAIFSKKNFESLSEAFSVASAAAVLSHNRYHVPVVVVPEGSASDTHEQAILRLQVTNVLSQPLTQATVKLEHAKSVASRATVLQKTSFTPVGDVFELNFMNVKFSSGYYDFLVEVEGDNRYIANTVELRVKISTEVGITNVDLSTVDKDQSIAPKTTRVTYPAKAKGTFIADSHQNFALFFQLVDVNTGAELTPHQTFVRLHNQKTGQEVVFVAEPDNKNVYKFELDTSERKIEFDSASGTYTLYLIIGDATLKNPILWNVADVVIKFPEEEAPSTVLSQNLFTPKQEIQHLFREPEKRPPTVVSNTFTALILSPLLLLFALWIRIGANVSNFTFAPSTIIFHLGHAAMLGLMYVYWTQLNMFQTLKYLAILGSVTFLAGNRMLAQQAVKRTAH
B10: sp¦P22102¦PUR2_HUMAN (protein, UniProt P22102 2-1010, looked up)
Trifunctional purine …: AARVLIIGSGGREHTLAWKLAQSHHVKQVLVAPGNAGTACSEKISNTAISISDHTALAQFCKEKKIEFVVVGPEAPLAAGIVGNLRSAGVQCFGPTAEAAQLESSKRFAKEFMDRHGIPTAQWKAFTKPEEACSFILSADFPALVVKASGLAAGKGVIVAKSKEEACKAVQEIMQEKAFGAAGETIVIEELLDGEEVSCLCFTDGKTVAPMPPAQDHKRLLEGDGGPNTGGMGAYCPAPQVSNDLLLKIKDTVLQRTVDGMQQEGTPYTGILYAGIMLTKNGPKVLEFNCRFGDPECQVILPLLKSDLYEVIQSTLDGLLCTSLPVWLENHTALTVVMASKGYPGDYTKGVEITGFPEAQALGLEVFHAGTALKNGKVVTHGGRVLAVTAIRENLISALEEAKKGLAAIKFEGAIYRKDVGFRAIAFLQQPRSLTYKESGVDIAAGNMLVKKIQPLAKATSRSGCKVDLGGFAGLFDLKAAGFKDPLLASGTDGVGTKLKIAQLCNKHDTIGQDLVAMCVNDILAQGAEPLFFLDYFSCGKLDLSVTEAVVAGIAKACGKAGCALLGGETAEMPDMYPPGEYDLAGFAVGAMERDQKLPHLERITEGDVVVGIASSGLHSNGFSLVRKIVAKSSLQYSSPAPDGCGDQTLGDLLLTPTRIYSHSLLPVLRSGHVKAFAHITGGGLLENIPRVLPEKLGVDLDAQTWRIPRVFSWLQQEGHLSEEEMARTFNCGVGAVLVVSKEQTEQILRDIQQHKEEAWVIGSVVARAEGSPRVKVKNLIESMQINGSVLKNGSLTNHFSFEKKKARVAVLISGTGSNLQALIDSTREPNSSAQIDIVISNKAAVAGLDKAERAGIPTRVINHKLYKNRVEFDSAIDLVLEEFSIDIVCLAGFMRILSGPFVQKWNGKMLNIHPSLLPSFKGSNAHEQALETGVTVTGCTVHFVAEDVDAGQIILQEAVPVKRGDTVATLSERVKLAEHKIFPAALQLVASGTVQLGENGKICWVKEE
B11: sp¦Q9HAV0¦GBB4_HUMAN (protein, UniProt Q9HAV0 2-340, looked up)
Guanine nucleotide-binding …: SELEQLRQEAEQLRNQIQDARKACNDATLVQITSNMDSVGRIQMRTRRTLRGHLAKIYAMHWGYDSRLLVSASQDGKLIIWDSYTTNKMHAIPLRSSWVMTCAYAPSGNYVACGGLDNICSIYNLKTREGNVRVSRELPGHTGYLSCCRFLDDSQIVTSSGDTTCALWDIETAQQTTTFTGHSGDVMSLSLSPDMRTFVSGACDASSKLWDIRDGMCRQSFTGHVSDINAVSFFPNGYAFATGSDDATCRLFDLRADQELLLYSHDNIICGITSVAFSKSGRLLLAGYDDFNCNVWDTLKGDRAGVLAGHDNRVSCLGVTDDGMAVATGSWDSFLRIWN

test system: human HL60 cells; assay: SWATH-MS proteomics, differential protein representation, akirin2 KO vs WT HL60 cells; format: cell-based; settings: SWATH-MS, akirin2 KO vs WT HL60 cells; sheet "Under-represented in KO"
In short: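 First, proteins from wild-type and knockout cells are digested with trypsin by FASP. Next, pooled IDA runs generate a reference ion library. Then six samples of 5 µg each are acquired by data-independent SWATH, and protein areas are normalized to the summed area of all detected proteins.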

Row | Molecule | Fold Change | Log (Fold Change)
1 | B1 | 0.7682 | -0.1145
2 | B2 | 0.7669 | -0.1152
3 | B3 | 0.7688 | -0.1142
4 | B4 | 0.76 | -0.1192
5 | B5 | 0.764 | -0.1169
6 | B6 | 0.7678 | -0.1147
7 | B7 | 0.7616 | -0.1182
8 | B8 | 0.7634 | -0.1173
9 | B9 | 0.7588 | -0.1199
10 | B10 | 0.7577 | -0.1205
11 | B11 | 0.7672 | -0.1151
